Patent publication US20040202665A1, “Compositions and methods for therapeutic treatment” (priority 2002, published 2004)

B1: Y1: human scFv antibody fragment of SEQ ID NO: 1, selected from a phage library on fixed human platelets (protein, listed as Homo sapiens)
scFv: MKYLLPTAAAGLLLLAAQPAMAEVQLVESGGGVVRPGGSLRLSCAASGFSFDDYGMSWVRQAPGKGLEWVSGINWNGGSTGYADSVKGRFTISRDNAKNSLYLQMNSLRAEDTAVYYCARMRAPVIWGQGTLVTVSRGGGGSGGGGSGGGGSSELTQDPAVSVALGQTVRITCQGDSLRSYYASWYQQKPGQAPVLVIYGKNNRPSGIPDRFSGSSSGNTASLTITGAQAEDEADYYCNSRDSSGNHVVFGGGTKLTVLGAAAEQKLISEEDLNGAA
B2: L32: scFv antibody fragment of SEQ ID NO:3, screened against a leukemia cell (protein, listed as Homo sapiens)
scFv: MKYLLPTAAAGLLLLAAQPAMAEVQLVESGGGVVRPGGSLRLSCAASGFTFDLNPKVKHMWVRQAPGKGLEWVSGINWNGGSTGYADSVKGRFTISRDNAKNSLYLQMNSERAEDTAVYYCARMRAPVIWGQGTLVTVSRGGGGSGGGGSGGGGSSELTQDPAVSVALGQTVRITCQGDSLRSYYASWYQQKPGQAPVLVIYGKNNRPSGIPDRFSGSSSGNTASLTITGAQAEDEADYYCNSRDSSGNHVVFGGGTKLTVLGAAAEQKLISEEDLNGAA

How the values were obtained:
[1] = tested on: MOLT-4 (T leukemia) cells; assay: Survival of MOLT-4 tumor-bearing mice after doxorubicin and Y1; format: in vivo; details: MOLT-4 tumor-bearing SCID mice; for survival of tumor-bearing mice (FIG. 1): 2 mg Dox/kg i.v. 1x/wk and/or 0.1 mg Y1 scFv/mouse i.v. 3x/wk, relative to control
Experimental: The present example examines the interaction between chemotherapy treatment and Y1 in the MOLT-4 tumor-bearing mice.
Initially, SCID mice (Jackson) were pretreated with 100 mg/kg CTX (Cytoxan-cyclophosphamid for injection, Mead Johnson). Five days after CTX injection, MOLT-4 (T leukemia) cells were inoculated intravenously (i.v.) through the tail vein with 2×10^7 cells. Mice were randomly divided into 5 treatment groups (13 per group), and they were treated, beginning 5 days after cell inoculation, as indicated in the table below. Tumor-bearing mice were treated for two weeks with sub-optimal dose of doxorubicin (Dox), in combination with Y1 given either concomitantly or after the Dox course of treatment. The response to the therapies was monitored as survival. As described above, the experimental groups were as follows: […]

[2] = tested on: primary leukemia cells derived from either AML or multiple myeloma (MM) patients; assay: Affinity of Y1 to primary leukemia cells; format: binding
platelets [3] = assay: Binding to platelets
platelets [4] = assay: Platelet aggregation; format: cell-based
leukemic cells = assay: Binding to leukemic cells

| Molecule | survival of tumor-bearing mice (FIG. 1) [1] | mean survival time (MST) ([1]; sub-optimal dose 2 mg Dox/kg i.v., 2 doses, 1x/wk, beginning day 5 post inoculation, control 39.08±0.8 days) [days] | affinity to primary leukemia cells relative to glycocalicin, fibrinogen-gamma prime, complement compound 4 and PSGL-1 epitopes [2] | binding to platelets (platelets [3]) | effect on platelet aggregation (platelets [4]) | affinity of binding to leukemic cells relative to Y1 (leukemic cells) |
| --- | --- | --- | --- | --- | --- | --- |
| COc1cccc2c1C(=O)c1c(O)c3c(c(O)c1C2=O)C[C@@](O)(C(=O)CO)C[C@@H]3O[C@H]1C[C@H](N)[C@H](O)[C@H](C)O1 [Dox, doxorubicin] | negative effect | 33.5 ± 1.68 | – | – | – | – |
| B1 | dramatic effect | – | several magnitudes higher | – | – | – |
| B2 | – | – | – | does not bind platelets | does not affect platelet aggregation | approximately five times greater affinity than Y1 |
